Source: paper PMC9411207, “Designed peptides as nanomolar cross-amyloid inhibitors acting via supramolecular nanofiber co-assembly” (Nature Communications, 2022)
Square brackets hold non-standard residues; d marks the D form. Ends that are not written are not given here. NMeF = CN[C@@H](Cc1ccccc1)C(=O)O; NMeL = CN[C@@H](CC(C)C)C(=O)O; NMeV = CN[C@H](C(=O)O)C(C)C; Nle = CCCC[C@H](N)C(=O)O

T1: N-terminal fluorescein-labeled IAPP (human, UniProt P10997 34-70, fluorescein on the N-terminus; subjected to air-oxidation)
T1 construct: also called Fluos-IAPP; source: synthetic peptide (Fmoc-SPPS, air-oxidation, RP-HPLC purified)
T1 chain (looked up): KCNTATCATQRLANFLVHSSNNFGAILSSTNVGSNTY


Experiments:
[1] = biological target: the molecule itself; test: SEC; Superdex 75 10/300 GL, 50 mM sodium phosphate pH 7.4, 100 mM NaCl; IAPP (16.5 µM) alone or with Nle3-VF (1/2) incubated in ThT buffer, 0 h and 96 h
[2] = biological target: T1, N-terminal fluorescein-labeled IAPP; test: other fluorescence titration; N-terminal fluorescently-labeled peptide (5 nM) titrated with unlabeled peptide; 10 mM sodium phosphate buffer, pH 7.4 (1% HFIP); measured within 2–5 min after preparation; apparent KDs from 1/1 binding models; settings: both partners purified
[3] = biological target: T2, Fluorescein-isothiocyanate-β-Ala-labeled Aβ42 (UniProt P05067 672-713, fluorescein-isothiocyanate-β-Ala on the N-terminus); test: as above; settings: both partners purified
T2 construct: amyloid-β peptide Aβ42, the 42-residue cut product of the amyloid precursor protein; also called FITC-Aβ42; N-terminal FITC-labeled Aβ42; source: bought: Bachem
T2 sequence (P05067 672-713): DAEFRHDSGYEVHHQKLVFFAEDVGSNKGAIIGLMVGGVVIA

Binder | Kd [2] | Kd [3] | stoichiometry N [1]
QKL[NMeV]F[NMeF]AED[Nle][Nle][Nle]NKGAIIGL[Nle]VGGVV [Nle3-VF] | 69.5 nM | 14.5 nM | 2
QK[NMeL]V[NMeF]FAEDLLLNKGAIIGL[Nle]VGGVV [L3-LF] | 143 nM | 2.6 nM | 
QK[NMeL]V[NMeF]FAED[Nle][Nle][Nle]NKGAIIGL[Nle]VGGVV [Nle3-LF] | 55.4 nM | 11.1 nM | 
QKL[NMeV]F[NMeF]AEDLLLNKGAIIGL[Nle]VGGVV [L3-VF] | 77.3 nM | 38 nM | 

The next binders have a lower Kd [2] than those just listed; values first:

Kd [2] | Kd [3] | Binder | stoichiometry N [1]
37.6 nM | 431 nM | QK[NMeL]V[NMeF]FAEDFFFNKGAIIGL[Nle]VGGVV [F3-LF] | 
15 nM | 161 nM | QKL[NMeV]F[NMeF]AEDFFFNKGAIIGL[Nle]VGGVV [F3-VF] | 
